{"source": "patent US6998240B2", "about": "“Screen for selective inhibitors or activators of Smad protein function” (Wisconsin Alumni Research Foundation, priority 2001, dated 2006)", "key": {"Smad2-P": {"biological_target": "T1, Smad2-P (Homo sapiens, UniProt Q15796)", "T1 construct": "Smad2; 1–467; pBlueBac; His; made in house; host or cells: Sf9 insect cells (baculovirus), co-infected with virus for membrane-targeted human Alk5 T204D", "test": "HTRF assay of biotin-FAST peptide binding to Smad2-P (competition)", "conditions": "for Average Normalized Counts / Percent of Control (minus Background): Biotin-FAST binding to Smad2-P", "description": "To establish HTRF assays for Smad protein interactions, we have used reagents from Wallac-Perkin Elmer and Packard that include Europium-cryptate coupled to α-His epitope tag antibody, α-GST antibody or Streptavidin. As acceptor fluorophores we have used allophycocyanin (Packard's XL665) coupled to Streptavidin or direct labeling of GST-fusion protein with IC5 (Dojindo). Reagents are mixed in a 50 microliter volume in the wells of a 384 Black non-treated microwell plate (Corning) and HTRF detected in a Wallac Victor V multimode plate reader. The reader detects emission at 615 nm from the Europium chelate donor and at 665 nm from the APC or IC5 acceptor. Background, cross-talk and high FRET wells can be indicated on the plate map to allow the machine to compute a normalized value as a ratio Rn=(ET/D) Dmax where ET=A−BI−(C×D). • A—Fluorescence at 665 nm • BI—Blank (buffer only) at 665 nm • D—Fluorescence at 615 nm • C—Cross-talk correction value calculated from wells containing only donor fluorophore • (from “Quench Correction for LANCE TR-FRET” by Perkin-Elmer Wallace)\nOver the past several months we have developed three HTRF assays for Smad binding interactions. All three assays use a Eu-chelate α-His epitope tag antibody as the donor. The antibody recognizes the hexahistidine epitope tag on the Smad proteins produced in the baculovirus expression system described above. As acceptors, we have used Streptavidin conjugated to allophycocyanin (Packard) that binds to biotinylated peptides. The peptides are synthesized to comprise the Smad interaction domain motif from human FAST or c-Jun (FIG. 3). The FAST 24-mer amino acid sequence is based on the homology between FAST, Mixer and Milk reported by Germain and colleagues (Germain, S., et al., supra, 2000). The24-mer C-JUN sequence is based on studies using deletions and gene fragments to define the Smad interaction motif (Zhang, Y., et al., supra, 1998; Liberati, N. T. et al., Proc. Natl. Acad. Sci. USA 96:4844–9, 1999). We also have developed an HTRF assay using IC5-GST-CBP, a fusion protein comprising the Smad interaction domain motif from CBP (a generous gift of Dr. Yigong Shi, Princeton University).\nThe assays are done in a 50 μl volume in the well of a 384-well plate. The assay buffer, as recommended by Packard for their HTRF reagents is 50 mM K-Hepes pH 7.0, 400 mM KF and 0.1% BSA. The high concentration of KF is recommended for the Eu(K) reagents from Packard. […] We have also optimized through many titrations the amount of Smad protein (220 ng/well, ˜4 pmoles per well of monomer), the concentration of biotinylated peptide (1 uMolar for FAST and C-JUN), the amount of Eu-anti-His tag antibody (36 ng/well) and the amount of Streptactin-APC (0.5 μg/well).\nWe used the FAST-SmadP HTRF assay described above. […] After 1 hr at room temperature, Streptavidin-APC was added to each well and 30 minutes later the fluorescence emissions at 615 nm and 665 nm were read in a PE-Wallac Victor V."}, "[1]": {"biological_target": "phosphorylated Smad2 (His-tagged, full length, from Sf9 cells co-infected with Alk5 T204D virus) (UniProt Q15796)", "test": "HTRF competition against biotinylated FAST peptide"}, "Smad3-P": {"biological_target": "T2, Smad3-P (Homo sapiens, UniProt P84022)", "T2 construct": "Smad3; 1–425; pBlueBac; His; made in house; host or cells: Sf9 insect cells (baculovirus), co-infected with virus for human Alk5 T204D", "test": "HTRF assay of FAST / Jun Smad interaction motif peptide binding to Smad3-P", "quoted_text": "The HTRF assay for detecting Smad protein interactions was used to quantify binding between the FAST Smad interaction motif and purified Smad 3 (phosphorylated). The indicated amounts of peptide or peptide aptamer were added as competitive inhibitors.\nAll three assays use a Eu-chelate α-His epitope tag antibody as the donor. The antibody recognizes the hexahistidine epitope tag on the Smad proteins produced in the baculovirus expression system described above. […] The peptides are synthesized to comprise the Smad interaction domain motif from human FAST or c-Jun (FIG. 3)."}, "[2]": {"biological_target": "phosphorylated Smad2 (His-tagged, full length, from Sf9 cells co-infected with Alk5 T204D virus) (UniProt Q15796)", "test": "HTRF, IC5-GST-CBP binding to Smad2-P, no inhibitor"}, "[3]": {"biological_target": "Smad4 (Strep-tagged, full length) (UniProt Q13485)", "sequence (Q13485 whole entry)": "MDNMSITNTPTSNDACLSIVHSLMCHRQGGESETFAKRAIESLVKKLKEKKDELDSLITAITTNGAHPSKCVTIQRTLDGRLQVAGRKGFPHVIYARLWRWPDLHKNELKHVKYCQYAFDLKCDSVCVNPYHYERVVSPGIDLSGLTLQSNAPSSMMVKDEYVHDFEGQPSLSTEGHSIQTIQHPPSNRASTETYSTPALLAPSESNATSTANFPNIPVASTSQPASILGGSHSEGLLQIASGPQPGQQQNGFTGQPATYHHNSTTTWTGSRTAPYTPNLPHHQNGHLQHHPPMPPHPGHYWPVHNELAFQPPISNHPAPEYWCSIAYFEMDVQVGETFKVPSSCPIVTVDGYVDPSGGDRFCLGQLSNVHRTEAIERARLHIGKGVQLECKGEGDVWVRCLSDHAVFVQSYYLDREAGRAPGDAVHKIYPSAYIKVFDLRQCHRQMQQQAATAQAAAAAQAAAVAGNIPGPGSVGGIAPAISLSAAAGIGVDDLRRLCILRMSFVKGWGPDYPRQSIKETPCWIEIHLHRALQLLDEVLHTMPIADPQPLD", "test": "HTRF, well D20 Smad4"}, "[4]": {"biological_target": "phosphorylated Smad3 (His-tagged, full length) (UniProt P84022)", "sequence (P84022 whole entry)": "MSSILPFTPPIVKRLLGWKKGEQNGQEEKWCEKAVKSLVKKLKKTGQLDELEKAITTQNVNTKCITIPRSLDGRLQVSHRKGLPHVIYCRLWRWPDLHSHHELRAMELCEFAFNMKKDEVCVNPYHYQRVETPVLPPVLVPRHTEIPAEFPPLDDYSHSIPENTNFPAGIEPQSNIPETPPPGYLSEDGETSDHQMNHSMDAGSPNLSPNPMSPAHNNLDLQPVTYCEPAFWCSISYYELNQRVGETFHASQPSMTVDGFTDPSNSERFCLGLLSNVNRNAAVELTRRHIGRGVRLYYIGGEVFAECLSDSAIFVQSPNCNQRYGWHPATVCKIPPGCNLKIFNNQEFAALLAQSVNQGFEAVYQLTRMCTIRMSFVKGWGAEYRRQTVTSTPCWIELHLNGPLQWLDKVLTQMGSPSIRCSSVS", "test": "HTRF, well D16 Smad3P"}, "[5]": {"biological_target": "phosphorylated Smad2 (His-tagged, full length, from Sf9 cells co-infected with Alk5 T204D virus) (UniProt Q15796)", "test": "HTRF, well D05 Smad2P"}, "[6]": {"biological_target": "unphosphorylated Smad2 (His-tagged, full length) (UniProt Q15796)", "test": "HTRF, well D13 Smad2"}, "[7]": {"biological_target": "Smad4 (Strep-tagged, full length) (UniProt Q13485)", "test": "HTRF, well D18 Smad4"}, "[8]": {"biological_target": "unphosphorylated Smad2 (His-tagged, full length) (UniProt Q15796)", "test": "HTRF, well D11 Smad2 (No Smad well: 260)"}, "[9]": {"biological_target": "phosphorylated Smad2 (His-tagged, full length, from Sf9 cells co-infected with Alk5 T204D virus) (UniProt Q15796)", "test": "HTRF, well D10 Smad2P with unlabelled GST-CBP competitor added after equilibrium"}, "[10]": {"biological_target": "unphosphorylated Smad2 (His-tagged, full length) (UniProt Q15796)", "test": "HTRF, well D12 Smad2"}, "[11]": {"biological_target": "Smad4 (Strep-tagged, full length) (UniProt Q13485)", "test": "HTRF, well D19 Smad4"}, "[12]": {"biological_target": "phosphorylated Smad2 (His-tagged, full length, from Sf9 cells co-infected with Alk5 T204D virus) (UniProt Q15796)", "test": "HTRF, well D06 Smad2P with unlabelled GST-CBP competitor added after equilibrium"}, "[13]": {"biological_target": "phosphorylated Smad2 (His-tagged, full length, from Sf9 cells co-infected with Alk5 T204D virus) (UniProt Q15796)", "test": "HTRF, well D09 Smad2P"}, "[14]": {"biological_target": "unphosphorylated Smad2 (His-tagged, full length) (UniProt Q15796)", "test": "HTRF, well D14 Smad2"}, "[15]": {"biological_target": "Smad4 (Strep-tagged, full length) (UniProt Q13485)", "test": "HTRF, well D17 Smad4"}, "[16]": {"biological_target": "phosphorylated Smad3 (His-tagged, full length) (UniProt P84022)", "test": "HTRF, well D15 Smad3P"}, "[17]": {"biological_target": "IC5-labelled GST-CBP fusion protein [GST: P08515]", "test": "HTRF, Eu-anti-GST donor plus GST-CBP-IC5 acceptor, well B08"}, "[18]": {"biological_target": "IC5-labelled GST-CBP fusion protein [GST: P08515]", "test": "HTRF, Eu-anti-GST donor plus GST-CBP-IC5 acceptor, well B07"}, "[19]": {"biological_target": "phosphorylated Smad2 (His-tagged, full length, from Sf9 cells co-infected with Alk5 T204D virus) (UniProt Q15796)", "test": "HTRF competition, biotin-FAST on Smad2-P, inhibitor at 50 µM"}, "[20]": {"biological_target": "phosphorylated Smad2 (His-tagged, full length, from Sf9 cells co-infected with Alk5 T204D virus) (UniProt Q15796)", "test": "HTRF competition, biotin-FAST on Smad2-P, inhibitor at 20 µM"}, "[21]": {"biological_target": "phosphorylated Smad2 (His-tagged, full length, from Sf9 cells co-infected with Alk5 T204D virus) (UniProt Q15796)", "test": "HTRF competition, biotin-FAST on Smad2-P, inhibitor at 40 µM"}}, "note": "No end group written: not given here.", "data": [{"substance": "JUN 24 mer: 24-mer peptide of the Smad interaction motif from c-Jun (LKQKVMNHVNSGCQLMLTQQLQTF)", "values": [{"measurement": "competition for Biotin-FAST binding to Smad-2P (in words)", "setting": "Smad2-P", "result": "inability"}, {"measurement": "Average Normalized Counts", "setting": "Smad2-P; 20 μM inhibitor peptide", "result": 1984}, {"measurement": "Percent of Control (minus Background)", "setting": "Smad2-P; 20 μM inhibitor peptide", "result": 106, "unit": "%"}, {"measurement": "Average Normalized Counts", "setting": "Smad2-P; 40 μM inhibitor peptide", "result": 1964}, {"measurement": "Percent of Control (minus Background)", "setting": "Smad2-P; 40 μM inhibitor peptide", "result": 105, "unit": "%"}]}, {"substance": "GST-trx-FAST aptamer with two amino acids deleted from the C-terminus of the FAST SIM (from UniProt O75593 327-348) (designed binder)", "values": [{"measurement": "fold higher IC50 than GST-trx-FAST", "setting": "[1]", "result": 10, "unit": "fold"}]}, {"substance": "GST-trx: 35 kd GST-trx fusion protein, scaffold without SIM insert [reference compound]", "values": [{"measurement": "effect on binding (in words)", "setting": "Smad2-P; 8 μg/50 ul", "result": "very little effect"}, {"measurement": "competitive inhibition of FAST Smad interaction motif binding to Smad 3 (phosphorylated) (in words)", "setting": "Smad3-P", "result": "did not interfere with binding"}]}, {"substance": "C-JUN: biotinylated 24-mer c-Jun Smad interaction motif peptide, HTRF ligand (LKQKVMNHVNSGCQLMLTQQLQTF; also: biotinylated, site not given here)", "values": [{"measurement": "time for binding reaction to reach equilibrium", "setting": "Smad3-P; 1 μM biotinylated peptide", "result": "about 90 minutes"}]}, {"substance": "GST-trx-FAST aptamer with two amino acids deleted from the N-terminus of the FAST SIM (from UniProt O75593 329-350) (designed binder)", "values": [{"measurement": "fold higher IC50 than GST-trx-FAST", "setting": "[1]", "result": 10, "unit": "fold"}]}, {"substance": "IC5-labelled GST-CBP fusion protein (from UniProt P08515 1-218)", "values": [{"measurement": "Average Normalized Counts", "setting": "[2]", "result": 751, "unit": "counts"}, {"measurement": "Percent of Control (minus Background)", "setting": "[2]", "result": 100, "unit": "%"}, {"measurement": "Normalized Counts", "setting": "[3]", "result": 150, "unit": "counts"}, {"measurement": "Normalized Counts", "setting": "[4]", "result": 683, "unit": "counts"}, {"measurement": "Normalized Counts", "setting": "[5]", "result": 593, "unit": "counts"}, {"measurement": "Normalized Counts", "setting": "[6]", "result": 311, "unit": "counts"}, {"measurement": "Normalized Counts", "setting": "[7]", "result": 206, "unit": "counts"}, {"measurement": "Normalized Counts", "setting": "[8]", "result": 334, "unit": "counts"}, {"measurement": "Normalized Counts", "setting": "[9]", "result": 353, "unit": "counts"}, {"measurement": "Normalized Counts", "setting": "[10]", "result": 315, "unit": "counts"}, {"measurement": "Normalized Counts", "setting": "[11]", "result": 252, "unit": "counts"}, {"measurement": "Normalized Counts", "setting": "[12]", "result": 322, "unit": "counts"}, {"measurement": "Normalized Counts", "setting": "[13]", "result": 617, "unit": "counts"}, {"measurement": "Normalized Counts", "setting": "[14]", "result": 327, "unit": "counts"}, {"measurement": "Normalized Counts", "setting": "[15]", "result": 149, "unit": "counts"}, {"measurement": "Normalized Counts", "setting": "[16]", "result": 665, "unit": "counts"}]}, {"substance": "Europium-cryptate αGST antibody (Packard)", "values": [{"measurement": "Emission 665", "setting": "[17]", "result": 9450, "unit": "counts"}, {"measurement": "Normalized Counts", "setting": "[17]", "result": 9110, "unit": "counts"}, {"measurement": "Emission 665", "setting": "[18]", "result": 5170, "unit": "counts"}, {"measurement": "Normalized Counts", "setting": "[18]", "result": 6800, "unit": "counts"}]}, {"substance": "hFAST-24mer PP>AA peptide (from UniProt O75593 327-350)", "values": [{"measurement": "Average Normalized Counts", "setting": "[19]", "result": 1860, "unit": "counts"}, {"measurement": "Average Normalized Counts", "setting": "[20]", "result": 1920, "unit": "counts"}]}, {"substance": "hFAST-13mer peptide (from UniProt O75593 331-343)", "values": [{"measurement": "Average Normalized Counts", "setting": "[19]", "result": 1980, "unit": "counts"}, {"measurement": "Percent of Control (minus Background)", "setting": "[19]", "result": 106, "unit": "%"}, {"measurement": "Average Normalized Counts", "setting": "[20]", "result": 2020, "unit": "counts"}, {"measurement": "Percent of Control (minus Background)", "setting": "[20]", "result": 108, "unit": "%"}]}, {"substance": "cJUN-24mer peptide (unlabelled) (from UniProt P05412 308-331)", "values": [{"measurement": "Average Normalized Counts", "setting": "[21]", "result": 1960, "unit": "counts"}, {"measurement": "Percent of Control (minus Background)", "setting": "[21]", "result": 105, "unit": "%"}, {"measurement": "Average Normalized Counts", "setting": "[20]", "result": 1980, "unit": "counts"}, {"measurement": "Percent of Control (minus Background)", "setting": "[20]", "result": 106, "unit": "%"}]}]}
